Measured values: the RNAGym collection of RNA variant scans (doi:10.7554/elife.80360)

B1: Hairpin Ribozyme (parent)
chain: GUCCUCUUUCACGUGCGCGUGAAAGAGAGAAGUGAACCAGAGAAACACACGUUGUGGUAUAUUACCUGGUA

Variants of: B1
Assay: self-cleavage, relative activity (ratio to wild type); higher = more cleavage; co-transcriptional

In order of falling self-cleavage:
1. C16A G34C  1.44
2. U7A G34C  1.36
3. C18G A71C  1.35
4. A35G A41C  1.31
5. A41U U53A  1.28
6. C12U G34A  1.19
7. A23C A71C  1.16
8. A24G U52A  1.12
9. G34A A35G  1.1
10. G15U C18A  1.07
11. G17A G19U  1.02
12. U52A U53G  1.01
13. U20C U53C  0.998
14. G15A G19U  0.942
15. C6U U53A  0.912
16. G17A U52A  0.912
17. C12G U53A  0.911
18. G17A A23U  0.892
19. G21C A28G  0.852
20. G21U  0.844
21. A11G A23G  0.83
22. A11U G19U  0.815
23. U14C U70A  0.814
24. G51U A71U  0.793
25. A24C U70C  0.778
26. C16A A71U  0.776
27. U5C G51A  0.737
28. U8C C16U  0.734
29. U20A A23C  0.734
30. C3A C18U  0.717
31. U9C G17U  0.709
32. C10U U14G  0.698
33. U7G U9C  0.66
34. G25U U70G  0.613
35. C10G U53C  0.59
36. U20C G25U  0.576
37. G19U G25U  0.548
38. G19A G54U  0.535
39. A41G U67A  0.527
40. A35C A64G  0.513
41. U8C A24G  0.502
42. G34U C48A  0.497
43. U9A U60G  0.484
44. A24C G69A  0.484
45. A49G U60A  0.475
46. A36U U70C  0.473
47. G21C A39C  0.463
48. C6A A22G  0.453
49. C12G U60G  0.452
50. U2C A71C  0.444
51. C3U U14G  0.442
52. C6A A41G  0.439
53. U20A A36C  0.412
54. G13C A26C  0.403
55. G13C U58G  0.398
56. U60G U70C  0.372
57. U20G A49G  0.364
58. A11U G57U  0.337
59. U2A U7A  0.331
60. A26C C66U  0.315
61. C10U A61C  0.311
62. U52G U60G  0.298
63. G13A C65U  0.285
64. C10G A39U  0.273
65. U14C U55A  0.271
66. U14C C50G  0.268
67. U8G A47C  0.266
68. C50U U70A  0.266
69. C4G U14G  0.265
70. U14C G57U  0.265
71. U7C G32U  0.261
72. U33C G68U  0.258
73. U2G U58G  0.255
74. A11U C65U  0.25
75. G21U A61G  0.245
76. U7C G42C  0.245
77. G54C A71U  0.243
78. G1C C16G  0.238
79. G17C G68C  0.238
80. C10A U55A  0.23
81. A39C G68U  0.229
82. G17A G57A  0.228
83. G1A C66G  0.225
84. G1C A39C  0.225
85. G19U G56C  0.223
86. C12U A47C  0.221
87. U20C C48A  0.221
88. G25U G42C  0.22
89. U2A G17U  0.22
90. G25U U55A  0.216
91. G25C A61U  0.213
92. U52C G56A  0.211
93. G57A G68C  0.207
94. A31G A59G  0.205
95. U60G A61G  0.205
96. A22C A61U  0.204
97. G25C U33G  0.197
98. G1C A23U  0.197
99. G54U G69C  0.194
100. C10G C66G  0.189
101. C6A C46G  0.189
102. C4A A47G  0.188
103. U33G A71G  0.184
104. C4U U14C  0.184
105. G51C U62G  0.184
106. C4U G68A  0.18
107. U62G U70C  0.18
108. U2A C12G  0.175
109. A22U C66G  0.175
110. A36C U55G  0.174
111. G21A C46U  0.173
112. G13U A61C  0.173
113. U2A C12A  0.171
114. A44C C65G  0.17
115. U14A G29C  0.168
116. G1C A28G  0.167
117. A35C C66G  0.159
118. G25U C46U  0.157
119. C6A U62C  0.157
120. A43G A59U  0.157
121. G56C  0.156
122. A59G U67G  0.153
123. G32A  0.153
124. G19A C48G  0.153
125. A23G A47U  0.151
126. U5G U9G  0.147
127. C10U A30C  0.146
128. G40U G69A  0.143
129. A11U A43C  0.139
130. A45C G54C  0.137
131. U20A C48U  0.137
132. U33G A49G  0.135
133. U9A C46U  0.134
134. C4U G25A  0.129
135. U2C G27A  0.129
136. U2A C65U  0.128
137. C46A C48A  0.127
138. U5G U8A  0.126
139. U5G C48A  0.125
140. G29A C48G  0.124
141. U7C C46G  0.124
142. C3U A45C  0.123
143. G57C U70G  0.119
144. A35C A49U  0.119
145. A11C A61U  0.118
146. U63A U67G  0.118
147. G29A A30C  0.115
148. G27U A39C  0.107
149. G21U G29U  0.106
150. U20C A43G  0.105
151. G27A G40C  0.104
152. U8G G57A  0.102
153. U9A A59C  0.0956
154. U62G G69A  0.0955
155. G17U A43U  0.0903
156. U5A G56C  0.0893
157. G29A G54C  0.0856
158. G13C U55C  0.0845
159. G42C C50U  0.0822
160. G15C G42A  0.0806
161. A45G A71U  0.0799
162. U5G A30C  0.0771
163. G1U U53A  0.0738
164. A44G C65A  0.0664
165. U33A U63C  0.0601
166. A24G A47U  0.0569
167. A49C U63C  0
